Data from IntAct's records for PubMed 19858347.

B1: Killer cell immunoglobulin-like receptor 2DL3 (Homo sapiens), P43628 (parent)
chain: MSLMVVSMVCVGFFLLQGAWPHEGVHRKPSLLAHPGPLVKSEETVILQCWSDVRFQHFLLHREGKFKDTLHLIGEHHDGVSKANFSIGPMMQDLAGTYRCYGSVTHSPYQLSAPSDPLDIVITGLYEKPSLSAQPGPTVLAGESVTLSCSSRSSYDMYHLSREGEAHERRFSAGPKVNGTFQADFPLGPATHGGTYRCFGSFRDSPYEWSNSSDPLLVSVTGNPSNSWPSPTEPSSETGNPRHLHVLIGTSVVIILFILLLFFLLHRWCCNKKNAVVMDQEPAGNRTVNREDSDEQDPQEVTYAQLNHCVFTQRKITRPSQRPKTPPTDIIVYTELPNAEP
B2: Killer cell immunoglobulin-like receptor 2DS4 (Homo sapiens), P43632 (parent)
chain: MSLMVIIMACVGFFLLQGAWPQEGVHRKPSFLALPGHLVKSEETVILQCWSDVMFEHFLLHREGKFNNTLHLIGEHHDGVSKANFSIGPMMPVLAGTYRCYGSVPHSPYQLSAPSDPLDMVIIGLYEKPSLSAQPGPTVQAGENVTLSCSSRSSYDMYHLSREGEAHERRLPAVRSINGTFQADFPLGPATHGGTYRCFGSFRDAPYEWSNSSDPLLVSVTGNPSNSWPSPTEPSSKTGNPRHLHVLIGTSVVKIPFTILLFFLLHRWCSDKKNAAVMDQEPAGNRTVNSEDSDEQDHQEVSYA
B3: Killer cell immunoglobulin-like receptor 2DL1 (Homo sapiens), P43626 (parent)
chain: MSLLVVSMACVGFFLLQGAWPHEGVHRKPSLLAHPGRLVKSEETVILQCWSDVMFEHFLLHREGMFNDTLRLIGEHHDGVSKANFSISRMTQDLAGTYRCYGSVTHSPYQVSAPSDPLDIVIIGLYEKPSLSAQLGPTVLAGENVTLSCSSRSSYDMYHLSREGEAHERRLPAGPKVNGTFQADFPLGPATHGGTYRCFGSFHDSPYEWSKSSDPLLVSVTGNPSNSWPSPTEPSSKTGNPRHLHILIGTSVVIILFILLFFLLHRWCSNKKNAAVMDQESAGNRTANSEDSDEQDPQEVTYTQLNHCVFTQRKITRPSQRPKTPPTDIIVYTELPNAESRSKVVSCP

Variants of: B1
Conditions: with hlac_human HLA-C
Target sequence in this assay (P10321 whole entry): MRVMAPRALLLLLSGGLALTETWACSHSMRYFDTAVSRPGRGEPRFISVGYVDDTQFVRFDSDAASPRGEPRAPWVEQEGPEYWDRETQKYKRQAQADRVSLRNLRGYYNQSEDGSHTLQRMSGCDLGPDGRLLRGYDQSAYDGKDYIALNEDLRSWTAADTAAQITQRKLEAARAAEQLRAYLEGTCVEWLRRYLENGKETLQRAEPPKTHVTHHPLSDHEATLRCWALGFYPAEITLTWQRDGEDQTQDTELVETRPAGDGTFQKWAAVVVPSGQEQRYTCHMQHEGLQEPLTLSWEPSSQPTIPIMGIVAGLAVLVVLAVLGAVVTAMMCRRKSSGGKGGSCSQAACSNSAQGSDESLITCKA

Variant	effect of a mutation on the interaction
Q92P;D93V;T105P	decreasing interaction strength
Q92P;D93V	decreasing interaction strength
T105P	decreasing interaction strength
Q92P	increasing interaction strength

Variants of: B1
Conditions: with hlac_human HLA-C
Remark: another data set of the same source
Target sequence in this assay (P10321 whole entry): as above

Variant	effect of a mutation on the interaction
Q92P;D93V;T105P	disrupting interaction strength
Q92P;D93V	disrupting interaction strength
T105P	disrupting interaction strength

Variants of: B1
Conditions: with hlab_human HLA-B
Target sequence in this assay (P01889 whole entry): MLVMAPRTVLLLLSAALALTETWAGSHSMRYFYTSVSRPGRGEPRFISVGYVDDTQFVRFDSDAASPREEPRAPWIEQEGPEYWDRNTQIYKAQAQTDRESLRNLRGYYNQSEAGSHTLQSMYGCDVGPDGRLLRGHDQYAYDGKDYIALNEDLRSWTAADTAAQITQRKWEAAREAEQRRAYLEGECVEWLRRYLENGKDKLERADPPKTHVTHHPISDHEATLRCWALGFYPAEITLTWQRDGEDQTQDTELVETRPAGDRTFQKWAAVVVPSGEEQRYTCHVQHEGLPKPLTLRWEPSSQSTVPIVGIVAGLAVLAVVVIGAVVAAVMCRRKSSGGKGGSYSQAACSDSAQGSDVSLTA

Variant	effect of a mutation on the interaction
Q92P	decreasing interaction strength

Variants of: B2
Conditions: with hlac_human HLA-C
Target sequence in this assay (P10321 whole entry): as the sequence (P10321 whole entry) above

Variant	effect of a mutation on the interaction
A205S	with no effect
K65M	disrupting interaction strength
P92Q;V93D	with no effect

Variants of: B2
Conditions: with hlac_human HLA-C
Remark: another data set of the same source
Target sequence in this assay (P10321 whole entry): as above

Variant	effect of a mutation on the interaction
A205S	decreasing interaction strength
K65M	decreasing interaction strength
P92Q;V93D	decreasing interaction strength
I123T	decreasing interaction strength

Variants of: B2
Conditions: with hlab_human HLA-B
Target sequence in this assay (P01889 whole entry): as the sequence (P01889 whole entry) above

Variant	effect of a mutation on the interaction
A205S	causing an interaction
P92Q;V93D	causing an interaction

Variants of: B2
Conditions: with hlac_human HLA-C
Remark: another data set of the same source
Target sequence in this assay (P10321 whole entry): as the sequence (P10321 whole entry) above

Variant	effect of a mutation on the interaction
A205S	causing an interaction
P92Q;V93D	causing an interaction

Variants of: B2
Conditions: with hlac_human HLA-C
Remark: another data set of the same source
Target sequence in this assay (P10321 whole entry): as above

Variant	effect of a mutation on the interaction
K65M	with no effect

Variants of: B2
Conditions: with hlac_human HLA-C
Remark: another data set of the same source

Variant	effect of a mutation on the interaction
K65M	causing an interaction
P92Q;V93D	increasing interaction strength

Variants of: B3
Conditions: with hlac_human HLA-C

Variant	effect of a mutation on the interaction
T105P	decreasing interaction strength
Q92P	increasing interaction strength
Q92P;D93V;T105P	decreasing interaction strength
Q92P;D93V	decreasing interaction strength

Variants of: B3
Conditions: with hlac_human HLA-C
Remark: another data set of the same source

Variant	effect of a mutation on the interaction
Q92P	decreasing interaction strength
